Experimental data from the supplement of paper PMC7877785.
± gives the uncertainty stated by the source.

Assay: self-splicing fitness, log relative to wild type (ln ratio); higher = more splicing; Tetrahymena group I intron in knt gene, E. coli kanamycin selection, DiMSum; sequences stand for … in CUCUCU…GGAGGGAAAAGUUAUCAGGCAUGCACCUGGUAGCUAGUCUUUAAACCAAUAGAUUGCAUCGGUUUAAAAGGCAAGACCGUCAAAUUGCGGGAAAGGGGUCAACAGCCGUUCAGUACCAAGUCUCAGGGGAAACUUUGAGAUGGCCUUGCAAAGGGUAUGGUAAUAAGCUGACGGACAUGGUCCUAACCACGCAGCCAAGUCCUAAGUCAACAGAUCUUCUGUUGAUAUGGAUGCAGUUCACAGACUAAAUGUCGGUCGGGGAAGAUGUAUUCUUCUCAUAAGAUAUAGUCGGACCUCUCCUUAAUGGGAGCUAGCGGAUGAAGUGAUGCAACACUGGAGCCGCUGGGAACUAAUUUGUAUGCGAAAGUAUAUUGAUUAGUUUUGGAGUACUCGUGGUCG
Method in brief: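 Fitness was computed with DiMSum as the error-weighted combination of replicate fold changes, kanamycin versus none, each normalised to wild type. The library randomised all eight intron nucleotides of the P1ex region, with the intron placed in the knt kanamycin-resistance gene on pET-22b(+) in E. coli BL21(DE3). Six replicate transformations were grown overnight at 37°C or 30°C on LB agar with or without 25 μg/mL kanamycin, plus 100 μg/mL carbenicillin, 50 μM IPTG and 0.2% rhamnose. Pooled colonies were amplicon-sequenced on an Illumina HiSeq 2500.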

GCCUAGCAAUAUUACGGUUA
self-splicing fitness (ln) (30 °C): -1.47 ± 0.11
self-splicing fitness (ln) (37 °C): -0.443 ± 0.091

GCCUAGCAAUAUUACGUAAA
self-splicing fitness (ln) (30 °C): -1.1 ± 0.076
self-splicing fitness (ln) (37 °C): -0.594 ± 0.093

GCCUAGCAAUAUUACGUACU
self-splicing fitness (ln) (30 °C): -0.867 ± 0.092
self-splicing fitness (ln) (37 °C): -0.282 ± 0.093

GCCUAGCAAUAUUACGUCGG
self-splicing fitness (ln) (30 °C): -3.62 ± 0.19
self-splicing fitness (ln) (37 °C): -2.93 ± 0.21

GCCUAGCAAUAUUACGUCGU
self-splicing fitness (ln) (30 °C): -0.763 ± 0.068
self-splicing fitness (ln) (37 °C): -0.337 ± 0.069

GCGAAGCAAUAUUACGAACC
self-splicing fitness (ln) (30 °C): -1.67 ± 0.13
self-splicing fitness (ln) (37 °C): -1.06 ± 0.15

GCGAAGCAAUAUUACGACCA
self-splicing fitness (ln) (30 °C): -0.945 ± 0.21
self-splicing fitness (ln) (37 °C): -0.159 ± 0.38

GCGAAGCAAUAUUACGACUC
self-splicing fitness (ln) (30 °C): -0.212 ± 0.086
self-splicing fitness (ln) (37 °C): 0.367 ± 0.1

GCGAAGCAAUAUUACGAGAC
self-splicing fitness (ln) (30 °C): -2.67 ± 0.26
self-splicing fitness (ln) (37 °C): -1.46 ± 0.25

GCGAAGCAAUAUUACGAUAA
self-splicing fitness (ln) (30 °C): -2.27 ± 0.15
self-splicing fitness (ln) (37 °C): -1.46 ± 0.2

GCGAAGCAAUAUUACGAUAU
self-splicing fitness (ln) (30 °C): -2.52 ± 0.13
self-splicing fitness (ln) (37 °C): -1.22 ± 0.12

GCGAAGCAAUAUUACGAUCC
self-splicing fitness (ln) (30 °C): -1.64 ± 0.21
self-splicing fitness (ln) (37 °C): -1.76 ± 0.3

GCGAAGCAAUAUUACGCCUA
self-splicing fitness (ln) (30 °C): -3.1 ± 0.45
self-splicing fitness (ln) (37 °C): -2.39 ± 0.34

GCGAAGCAAUAUUACGCGAA
self-splicing fitness (ln) (30 °C): -2.2 ± 0.13
self-splicing fitness (ln) (37 °C): -1.68 ± 0.14

GCGAAGCAAUAUUACGCGCA
self-splicing fitness (ln) (30 °C): -1.75 ± 0.36
self-splicing fitness (ln) (37 °C): -1.11 ± 0.22

GCGAAGCAAUAUUACGCGUC
self-splicing fitness (ln) (37 °C): -1.65 ± 0.17

GCGAAGCAAUAUUACGCGUU
self-splicing fitness (ln) (30 °C): -2.54 ± 0.15
self-splicing fitness (ln) (37 °C): -2.77 ± 0.27

GCGAAGCAAUAUUACGCUAG
self-splicing fitness (ln) (30 °C): -3.28 ± 0.26
self-splicing fitness (ln) (37 °C): -0.964 ± 0.32

GCGAAGCAAUAUUACGCUCA
self-splicing fitness (ln) (30 °C): -1.48 ± 0.28
self-splicing fitness (ln) (37 °C): -2.25 ± 0.33

GCGAAGCAAUAUUACGGAUC
self-splicing fitness (ln) (30 °C): -0.303 ± 0.071
self-splicing fitness (ln) (37 °C): -0.659 ± 0.094

GCGAAGCAAUAUUACGGAUG
self-splicing fitness (ln) (30 °C): -1.48 ± 0.078
self-splicing fitness (ln) (37 °C): -1.32 ± 0.11

GCGAAGCAAUAUUACGGUCU
self-splicing fitness (ln) (30 °C): -1.71 ± 0.085
self-splicing fitness (ln) (37 °C): -0.493 ± 0.089

GCGAAGCAAUAUUACGUAGC
self-splicing fitness (ln) (30 °C): -3.43 ± 0.23
self-splicing fitness (ln) (37 °C): -2.22 ± 0.23

GCGAAGCAAUAUUACGUCGU
self-splicing fitness (ln) (30 °C): -3.79 ± 0.27
self-splicing fitness (ln) (37 °C): -2.6 ± 0.28

GCGAAGCAAUAUUACGUUUA
self-splicing fitness (ln) (30 °C): -2.57 ± 0.14
self-splicing fitness (ln) (37 °C): -1.32 ± 0.11

GCGCAGCAAUAUUACGAGAG
self-splicing fitness (ln) (30 °C): -3.03 ± 0.19
self-splicing fitness (ln) (37 °C): -1.35 ± 0.1

GCGCAGCAAUAUUACGAUCC
self-splicing fitness (ln) (30 °C): -0.589 ± 0.15
self-splicing fitness (ln) (37 °C): 0.707 ± 0.24

GCGCAGCAAUAUUACGAUCG
self-splicing fitness (ln) (30 °C): -1.61 ± 0.11
self-splicing fitness (ln) (37 °C): 0.00803 ± 0.12

GCGCAGCAAUAUUACGCCUU
self-splicing fitness (ln) (30 °C): -2.92 ± 0.23
self-splicing fitness (ln) (37 °C): 0.19 ± 0.14

GCGCAGCAAUAUUACGCGGA
self-splicing fitness (ln) (30 °C): -0.906 ± 0.096
self-splicing fitness (ln) (37 °C): -0.269 ± 0.084

GCGCAGCAAUAUUACGGAAC
self-splicing fitness (ln) (30 °C): -1.37 ± 0.081
self-splicing fitness (ln) (37 °C): -0.714 ± 0.098

GCGCAGCAAUAUUACGGAGG
self-splicing fitness (ln) (30 °C): -1.63 ± 0.12
self-splicing fitness (ln) (37 °C): -0.473 ± 0.11

GCGCAGCAAUAUUACGGCCU
self-splicing fitness (ln) (30 °C): -0.201 ± 0.061
self-splicing fitness (ln) (37 °C): 0.128 ± 0.072

GCGCAGCAAUAUUACGGGCA
self-splicing fitness (ln) (30 °C): -2.9 ± 0.14
self-splicing fitness (ln) (37 °C): -1.24 ± 0.11

GCGCAGCAAUAUUACGGGGC
self-splicing fitness (ln) (30 °C): -3.33 ± 0.18
self-splicing fitness (ln) (37 °C): -2.75 ± 0.38

GCGCAGCAAUAUUACGGUGC
self-splicing fitness (ln) (30 °C): -4.08 ± 0.25
self-splicing fitness (ln) (37 °C): -2.13 ± 0.32

GCGCAGCAAUAUUACGUAAC
self-splicing fitness (ln) (30 °C): -1.3 ± 0.088
self-splicing fitness (ln) (37 °C): -0.468 ± 0.12

GCGCAGCAAUAUUACGUCCG
self-splicing fitness (ln) (30 °C): -2.27 ± 0.11
self-splicing fitness (ln) (37 °C): -0.478 ± 0.14

GCGCAGCAAUAUUACGUCGG
self-splicing fitness (ln) (30 °C): -1.4 ± 0.097
self-splicing fitness (ln) (37 °C): -0.816 ± 0.13

GCGCAGCAAUAUUACGUGUC
self-splicing fitness (ln) (30 °C): -2.71 ± 0.19
self-splicing fitness (ln) (37 °C): -2.83 ± 0.24

GCGCAGCAAUAUUACGUUCG
self-splicing fitness (ln) (30 °C): -1.7 ± 0.068
self-splicing fitness (ln) (37 °C): -1.47 ± 0.096

GCGCAGCAAUAUUACGUUGU
self-splicing fitness (ln) (30 °C): -3.03 ± 0.13
self-splicing fitness (ln) (37 °C): -1.24 ± 0.12

GCGGAGCAAUAUUACGAAUC
self-splicing fitness (ln) (30 °C): -2.17 ± 0.44

GCGGAGCAAUAUUACGAGGG
self-splicing fitness (ln) (30 °C): -4.49 ± 0.36
self-splicing fitness (ln) (37 °C): -2.93 ± 0.34

GCGGAGCAAUAUUACGAGUC
self-splicing fitness (ln) (37 °C): -1.09 ± 0.45

GCGGAGCAAUAUUACGCACU
self-splicing fitness (ln) (30 °C): -2.62 ± 0.14
self-splicing fitness (ln) (37 °C): -2.79 ± 0.18

GCGGAGCAAUAUUACGCCUA
self-splicing fitness (ln) (30 °C): -2.53 ± 0.46

GCGGAGCAAUAUUACGGCUG
self-splicing fitness (ln) (30 °C): -2.93 ± 0.34

GCGGAGCAAUAUUACGGGCG
self-splicing fitness (ln) (30 °C): -1.83 ± 0.13
self-splicing fitness (ln) (37 °C): -1.21 ± 0.17
